Measured values published in PMC9579148 (European Journal of Medicinal Chemistry, 2022).
No end group written: not given here.

Columns and labels:
[1] = molecular target: recombinant SARS-CoV-2 M^pro (Proteros) (SARS-CoV-2); test: cell-based or functional assay
[2] = molecular target: recombinant SARS-CoV-2 M^pro (Proteros) (SARS-CoV-2); test: FRET enzymatic inhibition assay

Ac-Gly-Tyr-His-aldehyde (SMILES CC(=O)NCC(=O)N[C@@H](Cc1ccc(O)cc1)C(=O)N[C@H](C=O)Cc1c[nH]cn1) [compound 8 (aldehydic tripeptide)]
IC50 of inhibition of M^pro enzymatic activity (FRET substrate cleavage) [1]: 198 µM | Kd [2]: 98.9 ± 11.9 µM

Pro-His-His-aldehyde [compound 9 (aldehydic tripeptide)]
IC50 of inhibition of M^pro enzymatic activity (FRET substrate cleavage) [1]: > 170 µM | Kd [2]: > 85 µM

Ac-Gly-His-Tyr-aldehyde (SMILES CC(=O)NCC(=O)N[C@@H](Cc1c[nH]cn1)C(=O)N[C@H](C=O)Cc1ccc(O)cc1) [compound 7 (aldehydic tripeptide)]
IC50 of inhibition of M^pro enzymatic activity (FRET substrate cleavage) [1]: > 425 µM | Kd [2]: > 213 µM

Ac-Gly-His-His-aldehyde (SMILES CC(=O)NCC(=O)N[C@@H](Cc1c[nH]cn1)C(=O)N[C@H](C=O)Cc1c[nH]cn1) [compound 5 (aldehydic tripeptide)]
IC50 of inhibition of M^pro enzymatic activity (FRET substrate cleavage) [1]: > 213 µM | Kd [2]: > 107 µM
